Results reported in US20240173424A1, “ANTI-NECTIN-4-ANTIBODY EXATECAN CONJUGATES” (EMERGENCE THERAPEUTICS AG, priority 2021, published 2024).

Key:
SUM190PT cells = assay: SUM190PT orthotopic xenograft in NSG mice; format: in vivo, mouse; settings: SUM190 grafted NSG mice, single intravenous injection, 4 or 8 mg/kg
Excerpt: Treatment of mice (single intravenous injection) started when tumors reached approximately 150 mm^3. […] Tumor sizes (n=10/group) were monitored with a caliper twice a week thereafter and sizes were reported with the following formula (LxlxhxPi/6).
NOD/SCID (nonobese diabetic/severe combined immunodeficient)/gc null mice (NSG) were obtained from Charles River Laboratory (Margate, UK). Six to seven-weeks old females (n=5/group) were orthotopically xenografted bilaterally with the SUM190PT (0.5×10^6) cells embedded in Matrigel. Treatment with ADC was performed as mentioned in the respective experiments. Tumor sizes (n=10/group) were monitored with a caliper twice a week thereafter and sizes were reported with the following formula (LxlxhxPi/6).

[1] = target: T1, Nectin-4 expressed by tumors and Nectin-4 expressed by human keratinocytes (Homo sapiens, UniProt Q96NY8); assay: Differential binding to tumor cells and human keratinocytes; settings: in vitro differentiated Nectin-4 expressing keratinocytes
T1 construct: Cells or cell lines (10,000-50,000) expressing Nectin-4 (naturally or transfected); endogenous in cells; host or cells: SUM190/SUM190PT (also SUM149 in IHC), NHEK differentiated with 0.1 mM CaCl2, human skin sections
T1 sequence (Q96NY8 32-510): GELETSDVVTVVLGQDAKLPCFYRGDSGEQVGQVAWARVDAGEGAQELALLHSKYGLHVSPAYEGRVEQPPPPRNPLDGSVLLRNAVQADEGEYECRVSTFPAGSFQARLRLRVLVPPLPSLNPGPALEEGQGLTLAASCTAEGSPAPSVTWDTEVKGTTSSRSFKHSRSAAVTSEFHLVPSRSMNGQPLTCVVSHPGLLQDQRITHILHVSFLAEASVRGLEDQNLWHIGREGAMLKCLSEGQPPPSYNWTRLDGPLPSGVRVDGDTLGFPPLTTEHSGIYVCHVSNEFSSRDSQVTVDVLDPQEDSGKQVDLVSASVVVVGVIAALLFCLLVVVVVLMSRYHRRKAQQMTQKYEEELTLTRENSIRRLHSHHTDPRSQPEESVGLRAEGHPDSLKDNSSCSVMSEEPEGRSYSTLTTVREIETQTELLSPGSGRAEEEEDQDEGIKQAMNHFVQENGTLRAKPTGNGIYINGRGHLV
Excerpt: FIG. 6: Differential binding to Nectin-4 expressed by tumor cell line and normal differentiated human keratinocytes. […] Cells were then stained with phycoerythrin conjugate goat anti human Fc antibody. Normalized mean fluorescence intensities are shown. Non-linear curve fitting (4 parameters) was done with GraphPad Prism 9 software. Horizontal bar is placed at 50% of maximum staining intensity obtained with HA22 antibody on SUM190 cells.
FIG. 7: Differential binding to Nectin-4 expressed by tumor cell line and normal differentiated human keratinocytes. Detection by flow cytometry. • Flow cytometry analysis of TNBC cell line (SUM190, A) and normal differentiated (0.1 mM CaCl2) human keratinocytes (NHEK, B) using 5 μg/mL of HA22 (Enfortumab), Ch-5A12.2, Ch-15A7.5, and Ch-8F06. Cells were then stained with phycoerythrin conjugate goat anti human Fc antibody. Normalized mean fluorescence intensities are shown.
FIG. 8: Differential binding to Nectin-4 expressed by tumor cell line and human keratinocytes. Detection by immuno-histochemistry. Cryo-preserved OCT-embedded blocks of high expressing levels of Nectin-4 tumor cell line (SUM190), low expressing levels of Nectin-4 tumor cell line (SUM149), human and cynomolgus skin were processed for staining with 15A7.5 mAb (A) and 9A2.7 mAb (B). Quick score reported for each mAb are shown (A, B). C, ratio of quick score SUM190 over human skin. […]
Remaining blocks were stored at −80° C. until further use. […] Several dilution of each mAb were tested to optimize noise to signal ratio and 0.5 μg/ml of mouse 15A7.5 mAb and 10 µg/mL of mouse 9A2.7 mAb were determined as optimal. […] Both the stained cells proportion and the staining intensity were evaluated for each field. […] Scoring procedure was as follows: (i) The proportion of cells stained positively was estimated and a score from 0 to 4 was be assigned for each field (0=0-5%; 1=5-25%; 2=25-50%; 3=50-75%; and 4=75-100%); and (ii) The staining intensity was scored as 0, 1, 2, or 3 corresponding to the presence of negative, weak, intermediate, and strong brown staining, respectively. […]

human Nectin-4 [2] = assay: Flow cytometry of MDA-MB231 transfected with Flag-tagged Nectin-4; format: binding; settings: MDA-MB231 transfected with Nectin-4, 0.3 ng/ml-5 μg/mL
Experimental: Detection by flow cytometry. • Flow cytometry analysis of MDA-MB231 transfected with the N-terminal Flag-tagged epitope of Nectin-4 using a dose range (0.3 ng/ml-5 μg/mL) of Ch-15A7.5 or Ch-5A12.2 antibodies Parental MDA-MB231 cells are included as controls. Cells were then stained with phycoerythrin conjugate goat anti human Fc antibody. The normalized mean fluorescence intensity is shown. Inlay: staining of parental MDA-MB231 cells with anti Nectin-1, -2 and -3 mAbs ([…]). Mean fluorescence intensity is represented.
Human breast carcinoma cell line MDA-MB231 (ATCC, Manassas, VA) was cultured in DMEM supplemented with 10% fetal bovine serum, 50 IU/mL penicillin, 50 μg/mL streptomycin and 2 mM glutamine. The cells were transfected with expression vector p3XFLR4.C1 containing a PVRL4 cDNA. Human triple negative breast cancer cell line SUM190PT (BioIVT, Westbury, NY) was cultures in Ham's F12 medium with 5% fetal bovine serum, 1% non-essential amino acids, 1% Hepes, 1% insulin, 1 μg/mL hydrocortisone, 6.8 ng/ml Triiodo L-tyrosine, 100 IU/mL penicillin, 100 μg/mL streptomycin and 2 mM glutamine. Chinese hamster ovary CHO cell line was cultured in DMEM supplemented with 10% fetal bovine serum, 100 IU/mL penicillin, 100 μg/mL streptomycin and 2 mM glutamine. […]

human Nectin-4 [3] = assay: ELISA on coated Nectin-4 Fc fusion proteins (Nec4-VCC, Nec4-V); format: binding; settings: statement in FIG. 3 legend on the competitor mAbs
Experimental: Detection by ELISA. • Ninety-six-wells plates were coated, as indicated, with 5 μg/mL Nectin-1 extracellular domain Fc fusion recombinant protein (Nec1-VCC), or Nectin-4 IgV-like domain Fc fusion recombinant protein (Nec4-V), or Nectin-4 extracellular domain Fc fusion recombinant protein (Nec4-VCC) overnight at 4° ° C.
FIG. 3: Characterization of Ch-15A7.5 epitope. Competition assay was performed by ELISA. • Ninety-six-wells plates were coated with 5 μg/mL of Nectin-4 extracellular domain Fc fusion recombinant protein (Nec4-VCC) overnight at 4° C. Binding of peroxidase-conjugated Ch-15A7.5 mAb (5 μg/mL) was measured in presence of increasing concentrations (2.75 ng/ml-6 μg/mL) of Rituximab, Ch-15A7 mAb, Enfortumab (HA22), Ch-N41 mAb and Ch-14A5 mAb.
A sandwich enzyme-linked immunosorbent assay was used to control specificity of Ch-15A7.5 antibody and to perform competition assays between different mAbs. Ninety-six-wells plates were coated with 10 nM of Nectin-4-VCC-Fc, Nectin-1-VCC-Fc (entire extracellular part) or Nectin-4-V-Fc (comprising only the IgV domain) overnight at +4° C. After washes and saturation with PBS 1% BSA, cells were incubated for 2 hours at 25° C. with 10 nM of peroxidase-conjugated Ch-15A7.5 mAb. In the case of competition, binding of 0.5 nM of peroxidase conjugated Ch-15A7.5 mAb was measured in the presence of variable concentration (0.018 nM to 40 nM) of “cold” mAb. One hundred μL of peroxidase substrate was added (One Step ABST, Pierce), and OD was red at 405 nm.

B1: HA22-MC-GGFG-DX8951 (conjugate, chains of the INN, looked up)
VH: EVQLVESGGGLVKPGGSLKLSCAASGFAFSIYDMSWVRQTPEKCLEWVAYISSGGGTTYYPDTVKGRFTISRDNAKNTLYLQMSSLKSEDTAMYYCARHSGYGTHWGVLFAYWGQGTLVTVSA
VL: DIQMTQTTSSLSASLGDRVTISCRASQDISNYLNWYQQKPDGTVKLLIYYTSILHSGVPSRFSGSGSGTDYSLTISNLEQEDFATYFCQQGNTLPWTFGCGTKLEI
modifications: MC-GGFG-DX8951 (exatecan) payload
- tumor regression (SUM190PT cells): induces a long-lasting tumor regression period

B2: mAb 3A1.4: monoclonal anti-Nectin-4 antibody characterized by SEQ ID NO:s 96-103 (antibody, V domains shown)
VH: DVQLQESGPSLVKPSQTLSLTCSVTGDSITSGYWNWIRKFPGNKLEYMGYISNSGITYYNPSLKSRISITRDTSKNQYFLQLNSVTAEDTATYYCTRFGSTMILYYTMDYWGQGTSVTVSS
VL: DIVMTQSPVTLSVTPGDRVSLSCRASQSISDYLHWYQQKSQESPRLLIKYASKSISGIPSRFSGSGSGSNFTLSINSVEPEDVGVYYCQNGHSFPLTFGAGTKLELK
modifications: VH_3A1.4; VK_3A1.4
- affinity to Nectin-4 expressed by tumors in comparison to Nectin-4 expressed by human keratinocytes [1]: higher affinity

B3: Ch-5A12.2: chimeric antibody of 5A12.2 (antibody, V domains shown)
VH: QIQLQQSGAELVKPGASVTLSCKTSGFTFNSMYISWLKQKPGQSLEWIAWIYAGTGGTRFNQKFTGKVQLTVDTSSSTAYMQFSSLTTDDSAIYYCAIRSGFVPMDYWGQGTSVTVSS
VL: SIVMTQTPKFLLVSAGDRVTITCKASQSVSNDVAWYQQKPGQSPKLLIYYASNRYTGVPDRFTGSGYGTDFTFTISTVQAEDLAVYFCQQDYSSPWTFGGGTKLEIK
- recognition of human Nectin-4 (human Nectin-4 [2]): recognize human Nectin-4

B4: HA22: human monoclonal anti-Nectin-4 antibody described in WO2012/047724, antibody of Enfortumab vedotin (antibody, V domains shown)
VH: EVQLVESGGGLVQPGGSLRLSCAASGFTFSSYNMNWVRQAPGKGLEWVSYISSSSSTIYYADSVKGRFTISRDNAKNSLSLQMNSLRDEDTAVYYCARAYYYGMDVWGQGTTVTVSS
VL: DIQMTQSPSSVSASVGDRVTITCRASQGISGWLAWYQQKPGKAPKFLIYAASTLQSGVPSRFSGSGSGTDFTLTISSLQPEDFATYYCQQANSFPPTFGGGTKVEIK
- recognition of the IgV domain of Nectin-4 (human Nectin-4 [3]): recognize the IgV domain of Nectin-4
